Measurements taken from PMC8298264, “Function of cofactor Akirin2 in the regulation of gene expression in model human neutrophil-like HL60 cells” (Bioscience Reports, 2021).

B1: sp¦O75533¦SF3B1_HUMAN (protein, UniProt O75533 1-1304, looked up)
Splicing factor 3B subunit 1: MAKIAKTHEDIEAQIREIQGKKAALDEAQGVGLDSTGYYDQEIYGGSDSRFAGYVTSIAATELEDDDDDYSSSTSLLGQKKPGYHAPVALLNDIPQSTEQYDPFAEHRPPKIADREDEYKKHRRTMIISPERLDPFADGGKTPDPKMNARTYMDVMREQHLTKEEREIRQQLAEKAKAGELKVVNGAAASQPPSKRKRRWDQTADQTPGATPKKLSSWDQAETPGHTPSLRWDETPGRAKGSETPGATPGSKIWDPTPSHTPAGAATPGRGDTPGHATPGHGGATSSARKNRWDETPKTERDTPGHGSGWAETPRTDRGGDSIGETPTPGASKRKSRWDETPASQMGGSTPVLTPGKTPIGTPAMNMATPTPGHIMSMTPEQLQAWRWEREIDERNRPLSDEELDAMFPEGYKVLPPPAGYVPIRTPARKLTATPTPLGGMTGFHMQTEDRTMKSVNDQPSGNLPFLKPDDIQYFDKLLVDVDESTLSPEEQKERKIMKLLLKIKNGTPPMRKAALRQITDKAREFGAGPLFNQILPLLMSPTLEDQERHLLVKVIDRILYKLDDLVRPYVHKILVVIEPLLIDEDYYARVEGREIISNLAKAAGLATMISTMRPDIDNMDEYVRNTTARAFAVVASALGIPSLLPFLKAVCKSKKSWQARHTGIKIVQQIAILMGCAILPHLRSLVEIIEHGLVDEQQKVRTISALAIAALAEAATPYGIESFDSVLKPLWKGIRQHRGKGLAAFLKAIGYLIPLMDAEYANYYTREVMLILIREFQSPDEEMKKIVLKVVKQCCGTDGVEANYIKTEILPPFFKHFWQHRMALDRRNYRQLVDTTVELANKVGAAEIISRIVDDLKDEAEQYRKMVMETIEKIMGNLGAADIDHKLEEQLIDGILYAFQEQTTEDSVMLNGFGTVVNALGKRVKPYLPQICGTVLWRLNNKSAKVRQQAADLISRTAVVMKTCQEEKLMGHLGVVLYEYLGEEYPEVLGSILGALKAIVNVIGMHKMTPPIKDLLPRLTPILKNRHEKVQENCIDLVGRIADRGAEYVSAREWMRICFELLELLKAHKKAIRRATVNTFGYIAKAIGPHDVLATLLNNLKVQERQNRVCTTVAIAIVAETCSPFTVLPALMNEYRVPELNVQNGVLKSLSFLFEYIGEMGKDYIYAVTPLLEDALMDRDLVHRQTASAVVQHMSLGVYGFGCEDSLNHLLNYVWPNVFETSPHVIQAVMGALEGLRVAIGPCRMLQYCLQGLFHPARKVRDVYWKIYNSIYIGSQDALIAHYPRIYNDDKNTYIRYELDYIL
B2: sp¦P33176¦KINH_HUMAN (protein, UniProt P33176 2-963, looked up)
Kinesin-1 heavy chain: ADLAECNIKVMCRFRPLNESEVNRGDKYIAKFQGEDTVVIASKPYAFDRVFQSSTSQEQVYNDCAKKIVKDVLEGYNGTIFAYGQTSSGKTHTMEGKLHDPEGMGIIPRIVQDIFNYIYSMDENLEFHIKVSYFEIYLDKIRDLLDVSKTNLSVHEDKNRVPYVKGCTERFVCSPDEVMDTIDEGKSNRHVAVTNMNEHSSRSHSIFLINVKQENTQTEQKLSGKLYLVDLAGSEKVSKTGAEGAVLDEAKNINKSLSALGNVISALAEGSTYVPYRDSKMTRILQDSLGGNCRTTIVICCSPSSYNESETKSTLLFGQRAKTIKNTVCVNVELTAEQWKKKYEKEKEKNKILRNTIQWLENELNRWRNGETVPIDEQFDKEKANLEAFTVDKDITLTNDKPATAIGVIGNFTDAERRKCEEEIAKLYKQLDDKDEEINQQSQLVEKLKTQMLDQEELLASTRRDQDNMQAELNRLQAENDASKEEVKEVLQALEELAVNYDQKSQEVEDKTKEYELLSDELNQKSATLASIDAELQKLKEMTNHQKKRAAEMMASLLKDLAEIGIAVGNNDVKQPEGTGMIDEEFTVARLYISKMKSEVKTMVKRCKQLESTQTESNKKMEENEKELAACQLRISQHEAKIKSLTEYLQNVEQKKRQLEESVDALSEELVQLRAQEKVHEMEKEHLNKVQTANEVKQAVEQQIQSHRETHQKQISSLRDEVEAKAKLITDLQDQNQKMMLEQERLRVEHEKLKATDQEKSRKLHELTVMQDRREQARQDLKGLEETVAKELQTLHNLRKLFVQDLATRVKKSAEIDSDDTGGSAAQKQKISFLENNLEQLTKVHKQLVRDNADLRCELPKLEKRLRATAERVKALESALKEAKENASRDRKRYQQEVDRIKEAVRSKNMARRGHSAQIAKPIRPGQHPAASPTHPSAIRGGGAFVQNSQPVAVRGGGGKQV
B3: sp¦Q96HE7¦ERO1A_HUMAN (protein, UniProt Q96HE7 24-468, looked up)
ERO1-like protein alpha: EEQPPETAAQRCFCQVSGYLDDCTCDVETIDRFNNYRLFPRLQKLLESDYFRYYKVNLKRPCPFWNDISQCGRRDCAVKPCQSDEVPDGIKSASYKYSEEANNLIEECEQAERLGAVDESLSEETQKAVLQWTKHDDSSDNFCEADDIQSPEAEYVDLLLNPERYTGYKGPDAWKIWNVIYEENCFKPQTIKRPLNPLASGQGTSEENTFYSWLEGLCVEKRAFYRLISGLHASINVHLSARYLLQETWLEKKWGHNITEFQQRFDGILTEGEGPRRLKNLYFLYLIELRALSKVLPFFERPDFQLFTGNKIQDEENKMLLLEILHEIKSFPLHFDENSFFAGDKKEAHKLKEDFRLHFRNISRIMDCVGCFKCRLWGKLQTQGLGTALKILFSEKLIANMPESGPSYEFHLTRQEIVSLFNAFGRISTSVKELENFRNLLQNIH
B4: sp¦Q14C86¦GAPD1_HUMAN (protein, UniProt Q14C86 1-1478, looked up)
GTPase-activating protein and …: MVKLDIHTLAHHLKQERLYVNSEKQLIQRLNADVLKTAEKLYRTAWIAKQQRINLDRLIITSAEASPAECCQHAKILEDTQFVDGYKQLGFQETAYGEFLSRLRENPRLIASSLVAGEKLNQENTQSVIYTVFTSLYGNCIMQEDESYLLQVLRYLIEFELKESDNPRRLLRRGTCAFSILFKLFSEGLFSAKLFLTATLHEPIMQLLVEDEDHLETDPNKLIERFSPSQQEKLFGEKGSDRFRQKVQEMVESNEAKLVALVNKFIGYLKQNTYCFPHSLRWIVSQMYKTLSCVDRLEVGEVRAMCTDLLLACFICPAVVNPEQYGIISDAPINEVARFNLMQVGRLLQQLAMTGSEEGDPRTKSSLGKFDKSCVAAFLDVVIGGRAVETPPLSSVNLLEGLSRTVVYITYSQLITLVNFMKSVMSGDQLREDRMALDNLLANLPPAKPGKSSSLEMTPYNTPQLSPATTPANKKNRLPIATRSRSRTNMLMDLHMDHEGSSQETIQEVQPEEVLVISLGTGPQLTPGMMSENEVLNMQLSDGGQGDVPVDENKLHGKPDKTLRFSLCSDNLEGISEGPSNRSNSVSSLDLEGESVSELGAGPSGSNGVEALQLLEHEQATTQDNLDDKLRKFEIRDMMGLTDDRDISETVSETWSTDVLGSDFDPNIDEDRLQEIAGAAAENMLGSLLCLPGSGSVLLDPCTGSTISETTSEAWSVEVLPSDSEAPDLKQEERLQELESCSGLGSTSDDTDVREVSSRPSTPGLSVVSGISATSEDIPNKIEDLRSECSSDFGGKDSVTSPDMDEITHGAHQLTSPPSQSESLLAMFDPLSSHEGASAVVRPKVHYARPSHPPPDPPILEGAVGGNEARLPNFGSHVLTPAEMEAFKQRHSYPERLVRSRSSDIVSSVRRPMSDPSWNRRPGNEERELPPAAAIGATSLVAAPHSSSSSPSKDSSRGETEERKDSDDEKSDRNRPWWRKRFVSAMPKAPIPFRKKEKQEKDKDDLGPDRFSTLTDDPSPRLSAQAQVAEDILDKYRNAIKRTSPSDGAMANYESTGDNHDRDLSSKLLYHSDKEVMGDGESAHDSPRDEALQNISADDLPDSASQAAHPQDSAFSYRDAKKKLRLALCSADSVAFPVLTHSTRNGLPDHTDPEDNEIVCFLKVQIAEAINLQDKNLMAQLQETMRCVCRFDNRTCRKLLASIAEDYRKRAPYIAYLTRCRQGLQTTQAHLERLLQRVLRDKEVANRYFTTVCVRLLLESKEKKIREFIQDFQKLTAADDKTAQVEDFLQFLYGAMAQDVIWQNASEEQLQDAQLAIERSVMNRIFKLAFYPNQDGDILRDQVLHEHIQRLSKVVTANHRALQIPEVYLREAPWPSAQSEIRTISAYKTPRDKVQCILRMCSTIMNLLSLANEDSVPGADDFVPVLVFVLIKANPPCLLSTVQYISSFYASCLSGEESYWWMQFTAAVEFIKTIDDRK
B5: sp¦Q9UFN0¦NPS3A_HUMAN (protein, UniProt Q9UFN0 1-247, looked up)
Protein NipSnap homolog 3A: MLVLRSALTRALASRTLAPQMCSSFATGPRQYDGIFYEFRSYYLKPSKMNEFLENFEKNAHLRTAHSELVGYWSVEFGGRMNTVFHIWKYDNFAHRTEVRKALAKDKEWQEQFLIPNLALIDKQESEITYLVPWCKLEKPPKEGVYELATFQMKPGGPALWGDAFKRAVHAHVNLGYTKLVGVFHTEYGALNRVHVLWWNESADSRAAGRHKSHEDPRVVAAVRESVNYLVSQQNMLLIPTSFSPLK
B6: sp¦Q92990¦GLMN_HUMAN (protein, UniProt Q92990 2-594, looked up)
Glomulin: AVEELQSIIKRCQILEEQDFKEEDFGLFQLAGQRCIEEGHTDQLLEIIQNEKNKVIIKNMGWNLVGPVVRCLLCKDKEDSKRKVYFLIFDLLVKLCNPKELLLGLLELIEEPSGKQISQSILLLLQPLQTVIQKLHNKAYSIGLALSTLWNQLSLLPVPYSKEQIQMDDYGLCQCCKALIEFTKPFVEEVIDNKENSLENEKLKDELLKFCFKSLKCPLLTAQFFEQSEEGGNDPFRYFASEIIGFLSAIGHPFPKMIFNHGRKKRTWNYLEFEEEENKQLADSMASLAYLVFVQGIHIDQLPMVLSPLYLLQFNMGHIEVFLQRTEESVISKGLELLENSLLRIEDNSLLYQYLEIKSFLTVPQGLVKVMTLCPIETLRKKSLAMLQLYINKLDSQGKYTLFRCLLNTSNHSGVEAFIIQNIKNQIDMSLKRTRNNKWFTGPQLISLLDLVLFLPEGAETDLLQNSDRIMASLNLLRYLVIKDNENDNQTGLWTELGNIENNFLKPLHIGLNMSKAHYEAEIKNSQEAQKSKDLCSITVSGEEIPNMPPEMQLKVLHSALFTFDLIESVLARVEELIEIKTKSTSEENIGIK

test system: human HL60 cells; test: SWATH-MS proteomics, differential protein representation, akirin2 KO vs WT HL60 cells; type: cell-based; details: SWATH-MS, akirin2 KO vs WT HL60 cells, under-represented in KO
In short: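 Differential representation compares akirin2 KO with WT HL60 across three biological replicates, 5 µg digest each, acquired by data-independent SWATH on a 120-min gradient. Library built from combined IDA runs searched with Paragon; proteins accepted at 1% FDR, with total-area-sum normalization.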

| Molecule | Fold Change | Log (Fold Change) |
| --- | --- | --- |
| B1 | 0.7121 | -0.1475 |
| B2 | 0.7087 | -0.1495 |
| B3 | 0.7045 | -0.1521 |
| B4 | 0.7165 | -0.1448 |
| B5 | 0.7109 | -0.1482 |

same assay, conditions: akirin2 KO vs WT HL60 cells; sheet "Under-represented in KO"

| Molecule | Fold Change | Log (Fold Change) |
| --- | --- | --- |
| B6 | 0.3264 | -0.4863 |
